The labels stand for the following.
T1: human ST2L on HEK-BLUE IL-33/IL-1beta cells (human, UniProt Q01638 19-556)
T1 sequence: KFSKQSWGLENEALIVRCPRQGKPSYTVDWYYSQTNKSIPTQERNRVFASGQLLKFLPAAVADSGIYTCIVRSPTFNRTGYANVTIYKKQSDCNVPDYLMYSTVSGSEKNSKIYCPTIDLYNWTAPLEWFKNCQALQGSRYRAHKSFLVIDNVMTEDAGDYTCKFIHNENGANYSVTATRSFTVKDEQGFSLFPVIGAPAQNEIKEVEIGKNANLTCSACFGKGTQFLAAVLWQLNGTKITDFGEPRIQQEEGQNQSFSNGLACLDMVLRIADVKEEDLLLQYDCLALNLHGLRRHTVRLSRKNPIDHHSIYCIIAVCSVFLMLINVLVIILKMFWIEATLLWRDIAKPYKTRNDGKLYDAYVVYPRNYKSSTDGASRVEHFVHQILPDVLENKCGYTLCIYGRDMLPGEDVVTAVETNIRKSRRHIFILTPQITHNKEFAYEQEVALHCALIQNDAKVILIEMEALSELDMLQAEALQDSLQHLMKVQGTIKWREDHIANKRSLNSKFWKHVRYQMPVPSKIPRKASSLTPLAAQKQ

T2: biotinylated cyno IL-33 (cynomolgus monkey, UniProt A0A2K5W3I1 112-269, biotin-labeled with EZ-LINK NHS-PEG4-Biotin)
T2 construct: also called biotin-cyIL-33
T2 sequence: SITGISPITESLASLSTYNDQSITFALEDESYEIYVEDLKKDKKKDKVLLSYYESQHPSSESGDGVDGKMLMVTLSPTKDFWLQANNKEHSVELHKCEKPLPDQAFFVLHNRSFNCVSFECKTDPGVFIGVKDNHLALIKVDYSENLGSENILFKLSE

T3: cynomolgus monkey N-terminal 6-His-tagged and C-terminal Avi-tagged IL-33 (S112-T270) (cynomolgus monkey)
T3 chain: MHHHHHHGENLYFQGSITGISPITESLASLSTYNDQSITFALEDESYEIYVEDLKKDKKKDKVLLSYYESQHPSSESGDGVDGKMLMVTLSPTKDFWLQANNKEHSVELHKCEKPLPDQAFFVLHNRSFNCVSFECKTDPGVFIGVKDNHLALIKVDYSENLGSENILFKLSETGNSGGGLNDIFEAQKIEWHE

T4: biotinylated human IL-33 (human, UniProt O95760 112-270, biotin-labeled with EZ-LINK NHS-PEG4-Biotin)
T4 construct: also called biotin-huIL-33
T4 sequence (looked up): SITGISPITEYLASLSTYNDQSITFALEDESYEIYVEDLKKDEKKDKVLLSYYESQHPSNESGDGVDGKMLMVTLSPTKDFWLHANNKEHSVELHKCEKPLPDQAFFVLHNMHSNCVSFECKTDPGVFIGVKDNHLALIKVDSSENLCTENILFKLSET

B1: cyno IL-33 N-His (ligand)
chain: MGSSHHHHHHSSGLVPRGSHMSITGISPITESLASLSTYNDQSITFALEDESYEIYVEDLKKDKKKDKVLLSYYESQHPSSESGDGVDGKMLMVTLSPTKDFWLQANNKEHSVELHKCEKPLPDQAFFVLHNRSFNCVSFECKTDPGVFIGVKDNHLALIKVDYSENLGSENILFKLSET
B2: human IL-33 (R&D Systems, #3625-IL-010/CF) (ligand, UniProt O95760 112-270, looked up)
chain: T4 sequence (looked up)
B3: H1M9568N (antibody, IgG1, V domains shown)
VH: QVLLVQSGAEVKKPGATVKVSCKASGSTFTGYYMHWVRQAPGQGLEWMGWINPNNGGTNYAQKFQGRVTMTRDTSISTAYMELSRLRSDDTAVYYCARELRYNWKSWGQGTLVTVSS
VL: EIVLTQSPGTLSLSPGERVTLSCRASQSVGRPYLAWYQQIPGQAPRLLIYGASSRATDIPDRFSGNGSGTDFTLTISRLEPEDFAVYYCQQYDNSPYTFGQGTRLEIK
notes: also called RG3
B4: H4H9640P (antibody, IgG4, V domains shown)
VH: QVQLQESGPGLVKPSETLSLTCTVSGGSISSYYWSWIRQPPGKGLELIGYIYYSGSTNYNPSLKSRVTISVDTSKNHFSLKLSSVTAADTAVYYCARSQYTSSWYGSFDIWGQGTMVTVSS
VL: DIQMTQSPSSVSASVGDRVTITCRASQGISTWLAWFQQKPGKAPKLLIYAASTLQGGVPSRFSGSGSGPEFTLTISSLQPEDFATYYCQQANSFPWTFGQGTKVEIK
notes: also called RG6

Assay [1] deals with T1, human ST2L on HEK-BLUE IL-33/IL-1beta …. As to the kind of experiment: cell-based or functional assay.
The target is the same in assay [2]. As to the kind of experiment: cell-based or functional assay. This is another data set of the same source.
The target in another assay is T2, biotinylated cyno IL-33. As to the kind of experiment: competitive ELISA, biotin-cyIL-33 to coated hST2-Fc. The essentials:
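Recombinant human ST2-Fc coated at 1 μg/ml; biotin-IL-33 (final 20 pM human, 45 pM cyno) premixed 1 h RT with serially diluted antibody (0–300 nM final), then bound to ST2-Fc 1 h RT. Streptavidin-polyHRP/TMB, A450; IC₅₀ from four-parameter fit, max blocking relative to IL-33-alone signal minus background.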
(In an ELISA, binding on a coated surface is turned into a signal by an enzyme label.)

Assay [3] concerns the target B2. The assay can be described thus: cell-based or functional assay.
In assay [4] the target is T3, cynomolgus monkey N-terminal …. The assay can be described thus: cell-based or functional assay.
For assay [5], the target named is B2. As to the kind of experiment: cell-based or functional assay. The source holds these as a separate data set.
Assay [6] concerns the target B2. As to the kind of experiment: cell-based or functional assay. This is another data set of the same source.
In assay [7] the target is B2. As to the kind of experiment: cell-based or functional assay. This is another data set of the same source.
Assay [8] has as its target B2. The assay can be described thus: cell-based or functional assay. This is another data set of the same source.
Assay [9] deals with B2. The assay can be described thus: cell-based or functional assay. The source holds these as a separate data set.
A further assay deals with T4, biotinylated human IL-33. As to the kind of experiment: competitive ELISA, biotin-huIL-33 to coated hST2-Fc. How it is done: The ability of the anti-IL-33 antibody 10C12.38.H6.87Y.58I IgG4 and each anti-IL-33 antibody listed in Table 5 (RG1-RG20) to block either human IL-33 or cyno IL-33 binding to human ST2 receptor was tested in a competitive binding ELISA. Briefly, 1 μg/ml of recombinant human ST2-Fc chimera protein prepared in coating buffer (50 mM sodium carbonate, pH 9.6) was coated on a 384-well MAXISORP® plate (Nalgene Nunc International; Rochester, N.Y.) and incubated overnight at 4° C. On the next day, non-specific binding was blocked with PBS containing 0.5% (w/v) solution of bovine serum albumin (BSA). Fixed concentrations of biotinylated human or cyno IL-33 prepared in assay buffer (25 mM PBS, pH 7.2, 0.1% BSA, 0.05% TWEEN®-20) were mixed with an equal volume of serially-diluted anti-IL-33 antibodies or assay buffer alone and incubated for 1 h at room temperature. The final assay concentrations of biotinylated human IL-33 or cyno IL-33 were 20 pM and 45 pM, respectively, and the final assay concentration of each antibody ranged from 0-300 nM. The pre-mixed solutions were added to the ST2-Fc coated plate and incubated for 1 h at room temperature. The binding of biotinylated IL-33 to coated ST2-Fc was detected by the sequential addition of Streptavidin Poly-HRP80 (Fitzgerald; Buckinghamshire, UK) and 3,3′,5,5′-tetramethyl benzidine (TMB) Microwell Peroxidase Substrate System (KPL; Gaithersburg, Md.). The absorbance (450 nm) was recorded using a […] ASCENT® plate reader (Thermo Scientific; Rockford, Ill.). The binding activity (%) of biotin-IL-33 to ST2 in the presence of anti-IL-33 was plotted as a function of antibody concentration. The data generated were fitted to a four-parameter equation to determine IC₅₀ values for each antibody (FIGS. 25A and 25B) using Prism software (Graphpad Software; La Jolla, Calif.). The maximum blocking (%) of each antibody was calculated as the ratio of the reduction in signal measured in the presence of antibody relative to the difference between the signal with IL-33 alone and background measurements.

For assay [10], the target named is B2. As to the kind of experiment: cell-based or functional assay. This is another data set of the same source.
The target in assay [11] is B1. The assay can be described thus: SPR Biacore T200, 25 C. The essentials: (§1)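 Antibodies captured via anti-Fc on CM5 chip; IL-33 injected at 3.7–100 nM (three-fold series), 4 min association, 10 min dissociation, 30 μl/min, ADA pH 7.4 buffer with 0.15 M NaCl, EDTA, Tween-20, at 25 °C or 37 °C. KD = koff/kon from 1:1 Langmuir fit; t1/2 = ln(2)/(60*koff).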
(In general: Surface plasmon resonance follows binding to a sensor surface in real time, without labels.)

Assay [12] deals with B2. As to the kind of experiment: SPR Biacore T200, 25 C. The essentials:
as §1

The target of assay [13] is B2. As to the kind of experiment: cell-based or functional assay. This is another data set of the same source.
For assay [14], the target named is B1. The assay can be described thus: SPR Biacore T200, 37 C. In outline: as §1
For assay [15], the target named is B2. As to the kind of experiment: SPR Biacore T200, 37 C. In outline: as §1

Where two headings read alike, the source gives them in different places.

With B1, the “EC50 (SEAP reporter OD 620, HEK-BLUE IL-33/IL-1beta cells)” value in assay [1] is 0.004 nM.

Consider B2, for which the “EC50 (SEAP reporter OD 620, HEK-BLUE IL-33/IL-1beta cells)” value in assay [2] was 0.0055 nM.

Take B3: the 50% inhibitory concentration (IC50) (commonly the concentration that inhibits the measured activity by half) with biotinylated cyno IL-33 came out at 77 nM; with biotinylated human IL-33, 0.19 nM. Also, the “Maximum Blocking” value worked out at 45% with biotinylated cyno IL-33 and 85% with biotinylated human IL-33. Further, the “IC50; SEAP reporter (OD 620), HEK-BLUE IL-33/IL-1beta cells, 10 pM hIL-33” value in assay [3] is 1.1e-10 M. Moreover, the “IC50; SEAP reporter (OD 620), HEK-BLUE IL-33/IL-1beta cells, 5 pM cyno IL-33 (5pM cIL-33-Nhis)” value in assay [4] came to 2.9e-08 M. In addition, the “IC50, IL-33-induced phospho-p38 in primary human basophils, 500 pM hIL-33” value in assay [5] was found to be 4e-13 M. Besides, in [6], the “Ph-p38 MFI at 0.4 nM Ab (500 pM human IL-33, primary basophils)” value is 88 MFI. The “IC50 (read off the curve)” value in assay [7] and in [8] was around 0.0004 nM in each case. Moreover, the “Ph-p38 MFI at 2 nM Ab (500 pM human IL-33, primary basophils)” value in [9] is 38 MFI.

Consider B4, for which the IC50 with biotinylated cyno IL-33 was 45 nM; with biotinylated human IL-33 it was 0.19 nM. The “Maximum Blocking” value with biotinylated cyno IL-33 is 25%; with biotinylated human IL-33 it was 80%. Further, the “IC50; SEAP reporter (OD 620), HEK-BLUE IL-33/IL-1beta cells, 10 pM hIL-33” value in assay [3] turned out to be 6.1e-10 M. In assay [5], the “IC50, IL-33-induced phospho-p38 in primary human basophils, 500 pM hIL-33” value was determined as 3.9e-13 M. Also, the “IC50 (read off the curve)” value in [10] was around 0.0004 nM. For the same molecule, the “Ph-p38 MFI at 0.4 nM Ab (500 pM human IL-33, primary basophils)” value in assay [6] was 99 MFI. The Kd (usually the equilibrium constant for the complex coming apart) with cyno IL-33 N-His [11] was determined as 2.17 nM; in [12], 0.549 nM; with cyno IL-33 N-His [14] it was 4.2 nM; in assay [15] it was 0.359 nM. The koff (usually the first-order rate constant of dissociation) came to 0.000528 s⁻¹ with cyno IL-33 N-His [11], 0.000438 s⁻¹ in assay [12], 0.0392 s⁻¹ in the assay with cyno IL-33 N-His [14] and 0.000626 s⁻¹ in [15]. In addition, the kon – broadly, the rate constant with which the complex forms – turned out to be 244000 M⁻¹ s⁻¹ with cyno IL-33 N-His [11], 797000 M⁻¹ s⁻¹ in [12], 9.34e+06 M⁻¹ s⁻¹ with cyno IL-33 N-His [14] and 1.74e+06 M⁻¹ s⁻¹ in assay [15]. The t1/2 with cyno IL-33 N-His [11] worked out at 22 min; in assay [12] it was 26 min; with cyno IL-33 N-His [14], 0 h; in assay [15], 18 min. For the same molecule, the “Ph-p38 MFI at 2 nM Ab (500 pM human IL-33, primary basophils)” value in assay [9] was determined as 52 MFI. In addition, the “IC50; IFN-gamma ELISA, primary human NK cells, 260 pM hIL-33 + IL-12” value in assay [13] came out at 2.4e-09 M.

Values taken from patent publication US20190092852A1 (Genentech, published 2019).
